Laboratory results from patent publication EP1688435A1 (Boehringer Ingelheim International GmbH, dated 2006).

How the values were obtained:
Assay in all cases: immunoprecipitation with myc antibodies, SDS-PAGE and silver staining (Figure 3B)
[1] = molecular target: human cohesin subunit Smc3 (human, UniProt Q9UQE7 1-1217)
[2] = molecular target: T1, human cohesin subunit SA1 (cell-cycle state not stated) (human, UniProt Q8WVM7 1-1258)
T1 sequence (looked up): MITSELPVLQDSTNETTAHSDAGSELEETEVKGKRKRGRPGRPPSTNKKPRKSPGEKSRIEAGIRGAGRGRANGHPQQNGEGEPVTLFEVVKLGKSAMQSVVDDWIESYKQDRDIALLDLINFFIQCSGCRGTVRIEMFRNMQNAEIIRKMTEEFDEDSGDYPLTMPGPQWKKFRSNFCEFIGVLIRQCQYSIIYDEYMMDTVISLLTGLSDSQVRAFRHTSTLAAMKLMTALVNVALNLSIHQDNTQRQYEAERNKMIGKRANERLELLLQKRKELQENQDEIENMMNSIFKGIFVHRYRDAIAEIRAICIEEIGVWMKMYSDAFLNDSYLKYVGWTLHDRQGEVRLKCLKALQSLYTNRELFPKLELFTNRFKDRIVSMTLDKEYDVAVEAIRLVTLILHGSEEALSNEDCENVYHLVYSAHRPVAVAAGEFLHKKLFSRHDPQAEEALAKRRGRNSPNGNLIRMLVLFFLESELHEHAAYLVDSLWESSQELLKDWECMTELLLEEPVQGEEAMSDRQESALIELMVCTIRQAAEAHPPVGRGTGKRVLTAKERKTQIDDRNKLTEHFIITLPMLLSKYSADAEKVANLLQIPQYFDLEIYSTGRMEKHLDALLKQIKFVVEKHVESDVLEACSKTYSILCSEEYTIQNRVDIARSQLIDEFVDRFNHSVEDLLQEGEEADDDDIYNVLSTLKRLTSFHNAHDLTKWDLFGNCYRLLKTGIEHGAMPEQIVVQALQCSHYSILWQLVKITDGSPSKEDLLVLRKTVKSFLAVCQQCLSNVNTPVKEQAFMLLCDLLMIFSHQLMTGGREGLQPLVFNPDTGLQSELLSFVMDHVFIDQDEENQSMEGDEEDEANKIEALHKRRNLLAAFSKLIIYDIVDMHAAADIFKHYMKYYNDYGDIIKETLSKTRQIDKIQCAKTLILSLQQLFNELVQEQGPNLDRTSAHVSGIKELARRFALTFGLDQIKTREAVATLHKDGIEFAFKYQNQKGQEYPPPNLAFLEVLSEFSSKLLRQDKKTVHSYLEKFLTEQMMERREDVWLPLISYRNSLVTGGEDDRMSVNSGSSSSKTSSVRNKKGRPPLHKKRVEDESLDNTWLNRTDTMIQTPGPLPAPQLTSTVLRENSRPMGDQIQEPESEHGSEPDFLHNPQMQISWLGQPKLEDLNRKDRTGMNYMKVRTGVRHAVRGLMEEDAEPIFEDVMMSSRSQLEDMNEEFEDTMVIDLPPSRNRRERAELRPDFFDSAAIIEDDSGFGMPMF

[3] = molecular target: T2, human cohesin subunit Smc1 (human, UniProt Q14683 1-1233)
T2 construct: also called Smcl
T2 sequence (looked up): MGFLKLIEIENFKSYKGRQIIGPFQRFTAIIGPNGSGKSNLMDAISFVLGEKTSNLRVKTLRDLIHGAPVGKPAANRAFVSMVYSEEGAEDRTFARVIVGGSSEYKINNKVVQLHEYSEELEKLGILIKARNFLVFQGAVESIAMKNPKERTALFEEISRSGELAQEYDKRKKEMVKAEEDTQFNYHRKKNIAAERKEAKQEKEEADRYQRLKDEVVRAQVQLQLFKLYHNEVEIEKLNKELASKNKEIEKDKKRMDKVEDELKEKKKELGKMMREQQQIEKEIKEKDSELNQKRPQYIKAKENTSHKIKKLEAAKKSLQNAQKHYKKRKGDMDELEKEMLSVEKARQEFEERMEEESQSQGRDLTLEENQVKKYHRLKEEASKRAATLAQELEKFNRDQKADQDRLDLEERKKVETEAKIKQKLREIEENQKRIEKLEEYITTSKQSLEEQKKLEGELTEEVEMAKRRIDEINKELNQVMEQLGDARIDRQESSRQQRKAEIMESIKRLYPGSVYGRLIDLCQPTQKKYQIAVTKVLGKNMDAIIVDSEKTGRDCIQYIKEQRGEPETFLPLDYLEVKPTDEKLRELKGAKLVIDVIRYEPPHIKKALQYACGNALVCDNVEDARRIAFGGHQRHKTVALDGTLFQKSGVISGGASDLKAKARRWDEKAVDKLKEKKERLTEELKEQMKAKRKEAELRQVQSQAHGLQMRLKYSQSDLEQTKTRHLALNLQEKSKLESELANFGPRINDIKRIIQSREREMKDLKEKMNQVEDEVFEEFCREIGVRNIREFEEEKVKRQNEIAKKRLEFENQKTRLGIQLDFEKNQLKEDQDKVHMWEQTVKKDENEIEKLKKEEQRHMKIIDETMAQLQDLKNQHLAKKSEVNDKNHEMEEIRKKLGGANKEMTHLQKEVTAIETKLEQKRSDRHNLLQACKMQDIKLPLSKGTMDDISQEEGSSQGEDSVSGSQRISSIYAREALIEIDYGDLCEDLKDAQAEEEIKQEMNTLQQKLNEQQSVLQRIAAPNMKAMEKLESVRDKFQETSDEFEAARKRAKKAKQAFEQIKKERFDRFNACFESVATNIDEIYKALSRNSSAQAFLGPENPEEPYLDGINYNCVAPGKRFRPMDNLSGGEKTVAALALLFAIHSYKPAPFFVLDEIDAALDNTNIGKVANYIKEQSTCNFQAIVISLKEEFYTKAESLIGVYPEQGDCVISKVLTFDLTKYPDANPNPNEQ

[4] = molecular target: T3, human cohesin subunit SA2 (cell-cycle state not stated) (human, UniProt Q8N3U4 1-1231)
T3 construct: Endogenous protein from HeLa cells
T3 sequence: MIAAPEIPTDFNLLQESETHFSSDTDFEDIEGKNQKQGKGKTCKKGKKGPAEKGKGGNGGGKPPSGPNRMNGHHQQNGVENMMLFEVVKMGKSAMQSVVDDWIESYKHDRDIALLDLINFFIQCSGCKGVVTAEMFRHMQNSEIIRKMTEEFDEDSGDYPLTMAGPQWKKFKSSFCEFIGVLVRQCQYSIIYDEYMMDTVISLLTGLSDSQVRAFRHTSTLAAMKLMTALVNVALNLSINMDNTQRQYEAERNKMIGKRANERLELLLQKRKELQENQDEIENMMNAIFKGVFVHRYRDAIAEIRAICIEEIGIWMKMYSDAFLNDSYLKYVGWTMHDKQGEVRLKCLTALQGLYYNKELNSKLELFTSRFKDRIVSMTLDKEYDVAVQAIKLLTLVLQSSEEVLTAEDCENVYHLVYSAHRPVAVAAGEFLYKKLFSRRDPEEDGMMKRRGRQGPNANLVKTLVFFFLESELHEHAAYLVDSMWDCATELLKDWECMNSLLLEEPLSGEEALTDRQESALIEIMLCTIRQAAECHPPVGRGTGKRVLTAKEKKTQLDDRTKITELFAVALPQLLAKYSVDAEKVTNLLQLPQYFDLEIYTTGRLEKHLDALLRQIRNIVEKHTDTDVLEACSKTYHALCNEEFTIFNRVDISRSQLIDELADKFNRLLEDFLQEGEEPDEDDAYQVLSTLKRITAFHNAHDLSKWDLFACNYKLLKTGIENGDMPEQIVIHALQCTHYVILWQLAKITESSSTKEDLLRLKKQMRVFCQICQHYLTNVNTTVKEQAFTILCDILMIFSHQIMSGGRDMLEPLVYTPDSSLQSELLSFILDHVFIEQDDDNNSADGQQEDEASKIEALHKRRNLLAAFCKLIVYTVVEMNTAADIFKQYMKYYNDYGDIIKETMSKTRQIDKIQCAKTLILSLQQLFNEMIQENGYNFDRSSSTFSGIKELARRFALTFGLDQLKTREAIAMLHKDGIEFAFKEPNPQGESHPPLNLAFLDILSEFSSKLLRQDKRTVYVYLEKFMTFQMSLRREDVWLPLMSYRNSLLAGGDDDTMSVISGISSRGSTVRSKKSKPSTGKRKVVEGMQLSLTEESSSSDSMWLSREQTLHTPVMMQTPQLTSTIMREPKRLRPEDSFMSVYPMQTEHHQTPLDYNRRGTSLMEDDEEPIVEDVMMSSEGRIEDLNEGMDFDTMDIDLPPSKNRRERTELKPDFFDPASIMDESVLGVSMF

Measured: binding result

Sequence of human cohesin subunit Smc3 (Q9UQE7 whole entry): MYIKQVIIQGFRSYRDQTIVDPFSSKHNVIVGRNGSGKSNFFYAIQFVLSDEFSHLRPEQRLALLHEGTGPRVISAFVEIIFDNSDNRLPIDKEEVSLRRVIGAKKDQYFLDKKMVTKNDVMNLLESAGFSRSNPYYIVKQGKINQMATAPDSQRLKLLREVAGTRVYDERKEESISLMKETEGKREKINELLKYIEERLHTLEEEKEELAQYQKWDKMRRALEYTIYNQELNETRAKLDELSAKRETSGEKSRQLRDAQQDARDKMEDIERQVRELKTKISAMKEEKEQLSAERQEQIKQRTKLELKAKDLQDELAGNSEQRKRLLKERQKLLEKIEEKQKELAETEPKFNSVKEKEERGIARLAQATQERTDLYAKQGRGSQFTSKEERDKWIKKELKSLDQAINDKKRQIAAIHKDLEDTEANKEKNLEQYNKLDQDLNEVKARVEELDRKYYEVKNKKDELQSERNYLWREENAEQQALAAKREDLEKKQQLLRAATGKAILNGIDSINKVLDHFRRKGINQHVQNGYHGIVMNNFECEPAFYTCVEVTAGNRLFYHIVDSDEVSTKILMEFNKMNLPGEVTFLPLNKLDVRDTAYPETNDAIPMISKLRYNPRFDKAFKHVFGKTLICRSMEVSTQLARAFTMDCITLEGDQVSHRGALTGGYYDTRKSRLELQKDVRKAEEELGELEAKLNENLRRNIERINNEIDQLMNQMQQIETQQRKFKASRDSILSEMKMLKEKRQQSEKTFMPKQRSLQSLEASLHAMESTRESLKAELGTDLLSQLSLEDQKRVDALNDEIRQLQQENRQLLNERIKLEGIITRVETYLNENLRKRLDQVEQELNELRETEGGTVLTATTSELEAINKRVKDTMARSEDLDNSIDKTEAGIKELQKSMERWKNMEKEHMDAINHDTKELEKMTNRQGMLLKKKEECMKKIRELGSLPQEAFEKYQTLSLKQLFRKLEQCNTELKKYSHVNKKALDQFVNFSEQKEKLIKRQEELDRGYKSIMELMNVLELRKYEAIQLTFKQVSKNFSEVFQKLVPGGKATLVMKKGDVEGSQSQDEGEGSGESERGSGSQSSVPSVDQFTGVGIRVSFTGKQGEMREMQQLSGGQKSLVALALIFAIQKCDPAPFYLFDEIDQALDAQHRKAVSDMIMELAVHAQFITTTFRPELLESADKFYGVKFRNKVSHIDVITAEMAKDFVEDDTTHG

B1: Scc1-S454A-myc expressed in HeLa tet-on cells (cell-cycle state not stated) (other)
chain: MFYAHFVLSKRGPLAKIWLAAHWDKKLTKAHVFECNLESSVESIISPKVKMALRTSGHLLLGVVRIYHRKAKYLLADCNEAFIKIKMAFRPGVVDLPEENREAAYNAITLPEEFHDFDQPLPDLDDIDVAQQFSLNQSRVEEITMREEVGNISILQENDFGDFGMDDREIMREGSAFEDDDMLVSTTTSNLLLESEQSTSNLNEKINHLEYEDQYKDDNFGEGNDGGILDDKLISNNDGGIFDDPPALSEAGVMLPEQPAHDDMDEDDNVSMGGPDSPDSVDPVEPMPTMTDQTTLVPNEEEAFALEPIDITVKETKAKRKRKLIVDSVKELDSKTIRAQLSDYSDIVTTLDLAPPTKKLMMWKETGGVEKLFSLPAQPLWNNRLLKLFTRCLTPLVPEDLRKRRKGGEADNLDEFLKEFENPEVPREDQQQQHQQRDVIDEPIIEEPSRLQEAVMEASRTNIDESAMPPPPPQGVKRKAGQIDPEPVMPPQQVEQMEIPPVELPPEEPPNICQLIPELELLPEKEKEKEKEKEDDEEEEDEDASGGDQDQEERRWNKRTQQMLHGLQRALAKTGAESISLLELCRNTNRKQAAAKFYSFLVLKKQQAIELTQEEPYSDIIATPGPRFHII
notes: not shown: 9xmyc tag at the C-terminus
binds: all assays above
